{
  "source": "paper PMC8154891",
  "about": "“TAPBPR promotes antigen loading on MHC-I molecules using a peptide trap” (Nature Communications, 2021)",
  "molecules": {"B1": {"name": "TAPBPR WT: wild-type human TAPBPR; luminal domain from S2 cells in vitro, FLAG-tagged full length in Expi293F cells (protein, UniProt Q9BX59 19-468, looked up)", "Tapasin-related protein": "AETKPHPAEGQWRAVDVVLDCFLAKDGAHRGALASSEDRARASLVLKQVPVLDDGSLEDFTDFQGGTLAQDDPPIIFEASVDLVQIPQAEALLHADCSGKEVTCEISRYFLQMTETTVKTAAWFMANMQVSGGGPSISLVMKTPRVTKNEALWHPTLNLPLSPQGTVRTAVEFQVMTQTQSLSFLLGSSASLDCGFSMAPGLDLISVEWRLQHKGRGQLVYSWTAGQGQAVRKGATLEPAQLGMARDASLTLPGLTIQDEGTYICQITTSLYRAQQIIQLNIQASPKVRLSLANEALLPTLICDIAGYYPLDVVVTWTREELGGSPAQVSGASFSSLRQSVAGTYSISSSLTAEPGSAGATYTCQVTHISLEEPLGASTQVVPPERRTALGVIFASSLFLLALMFLGLQRRQAPTGLGLLQAERWETTSCADTQSSHLHEDRTARVSQPS", "modifications": "FLAG tag"}},
  "key": {"[1]": {"test_system": "HLA-A*02:01/hβ2m", "conditions": "DSF, 7 μM HLA-A*02:01/hβ2m in complex with the peptide, 10× SYPRO orange, 1 °C/min, pH 7.2; n = 3 technical replicates"}, "[2]": {"molecular_target": "peptide-deficient (empty) HLA-A*02:01/hβ2m (human)", "test": "ITC"}, "[3]": {"molecular_target": "TAMRA-TAX9 in complex with HLA-A*02:01 (hβ2m) (human | HTLV-1)", "test": "fluorescence polarisation"}, "[4]": {"molecular_target": "TAPBPR^WT (TAP-binding protein related, wild-type, luminal domain) (human)", "test": "ITC"}, "[5]": {"molecular_target": "TAPBPR^ΔG24-R36 (luminal domain, deletion of residues G24-R36) (human)", "test": "ITC"}, "[6]": {"molecular_target": "T1, HLA-A*02:01/hβ2m (empty MHC-I released from TAPBPR^ΔG24-R36 complex) (Homo sapiens, UniProt P04439, D140Y/D185E/D98H/E176V/E277Q/G131W/G231S/I119V/I121R/I166T/I218V/L300P/L318F/N151K/N90K/P208A/P217A/Q86G/Q94H/R138H/R169H/T345S)", "T1 construct": "DNA plasmid constructs encoding the luminal domain of human HLA-A*02:01 (heavy chain); made in house", "test": "ITC, KD2,app: peptide titrated into peptide-deficient HLA-A*02:01/hβ2m/TAPBPR^ΔG24-R36 complex, no excess TAPBPR", "type": "binding", "conditions": "~50–100 μM peptide into ~15 μM peptide-deficient complex, pH 7.2, one-site fit, one technical replicate, error from fit"}, "[7]": {"molecular_target": "T2, peptide-deficient HLA-A*02:01/hβ2m/TAPBPR^WT complex (Homo sapiens, UniProt P04439, D140Y/D185E/D98H/E176V/E277Q/G131W/G231S/I119V/I121R/I166T/I218V/L300P/L318F/N151K/N90K/P208A/P217A/Q86G/Q94H/R138H/R169H/T345S)", "T2 construct": "DNA plasmid constructs encoding the luminal domain of human HLA-A*02:01 (heavy chain); made in house; TAPBPR: Drosophila S2 cells", "test": "ITC, KD4: peptide titrated into empty HLA-A*02:01/TAPBPR^WT complex with excess TAPBPR", "type": "binding", "conditions": "~150–200 μM peptide into ~15 μM peptide-deficient complex and 50 μM excess TAPBPR, pH 7.2, one-site fit, error from fit"}, "[8]": {"molecular_target": "T3, peptide-deficient HLA-A*02:01/hβ2m/TAPBPR^ΔG24-R36 complex (Homo sapiens, UniProt P04439, D140Y/D185E/D98H/E176V/E277Q/G131W/G231S/I119V/I121R/I166T/I218V/L300P/L318F/N151K/N90K/P208A/P217A/Q86G/Q94H/R138H/R169H/T345S)", "T3 construct": "DNA plasmid constructs encoding the luminal domain of human HLA-A*02:01 (heavy chain); made in house", "test": "ITC, KD4: peptide titrated into empty HLA-A*02:01/TAPBPR^ΔG24-R36 complex with excess TAPBPR", "type": "binding", "conditions": "~150–200 μM peptide into ~15 μM peptide-deficient complex and 50 μM excess TAPBPR, pH 7.2, one-site fit, error from fit"}, "[9]": {"molecular_target": "T4, HLA-A*02:01/hβ2m (empty MHC-I released from TAPBPR^WT complex) (Homo sapiens, UniProt P04439, D140Y/D185E/D98H/E176V/E277Q/G131W/G231S/I119V/I121R/I166T/I218V/L300P/L318F/N151K/N90K/P208A/P217A/Q86G/Q94H/R138H/R169H/T345S)", "T4 construct": "DNA plasmid constructs encoding the luminal domain of human HLA-A*02:01 (heavy chain); made in house; TAPBPR: Drosophila S2 cells", "test": "ITC, KD2,app: peptide titrated into peptide-deficient HLA-A*02:01/hβ2m/TAPBPR^WT complex, no excess TAPBPR", "type": "binding", "conditions": "~50–100 μM peptide into ~15 μM peptide-deficient complex, 50 mM NaCl, 20 mM sodium phosphate pH 7.2, one-site fit, one technical replicate, error from fit"}, "[10]": {"molecular_target": "HLA-A*01:01 (Homo sapiens, UniProt P04439, A114D/A174V/A182V/D101N/D185E/E176A/E190D/L180R/Q94H/R68K/S129P/T187R/V100A/V91M/W191G)", "conditions": "yeast-displayed TAPBPR, flow cytometry"}, "[11]": {"molecular_target": "MHC-I", "conditions": "read-out: estimated KD of the MHC-I/TAPBPR interaction; SPR experiments of an analogous system; cited from earlier work"}, "[12]": {"molecular_target": "TAX8/HLA-A*02:01/hβ2m", "test": "FP, KD3: TAPBPR titrated into TAMRA-TAX9 and TAX8/HLA-A*02:01/hβ2m", "type": "binding, human", "conditions": "TAPBPR (0–80 μM) titrated into 1 nM TAMRA-TAX9 and 50 nM TAX8/HLA-A*02:01/hβ2m; 25 °C, pH 7.2, 0.05% tween-20; read-out: KD3 from FP"}},
  "note": "Where “and” joins values, the source holds several entries; their conditions need not be identical. Identical values can stand only once.",
  "data": [
    {"molecule": "LLFGGGGYPVYV [TAX12]", "values": [
      {"measurement": "Tm of pMHC-I complex", "setting": "[1]", "result": 53.2, "unit": "°C"}
    ]},
    {"molecule": "TAPBPR^WT (TAP-binding protein related, wild-type, luminal domain) (domain or fragment)", "values": [
      {"measurement": "Kd", "setting": "[2]", "result": "37.4 nM and 30.6 nM and 38.8 nM"},
      {"measurement": "Kd", "setting": "[3]", "result": 2000, "unit": "nM"}
    ]},
    {"molecule": "TAPBPR^ΔG24-R36 (luminal domain, deletion of residues G24-R36) (domain or fragment)", "values": [
      {"measurement": "Kd", "setting": "[2]", "result": "13.9 nM and 11.1 nM and 14.2 nM"},
      {"measurement": "Kd", "setting": "[3]", "result": 2000, "unit": "nM"}
    ]},
    {"molecule": "TAPBPR^ΔALAS (luminal domain, deletion of residues A29-S32) (domain or fragment)", "values": [
      {"measurement": "Kd", "setting": "[3]", "result": 2000, "unit": "nM"}
    ]},
    {"molecule": "TAX9/HLA-A*02:01/hβ2m (from UniProt P61769 21-119) (peptide-MHC)", "values": [
      {"measurement": "Kd", "setting": "[4]", "result": 1900, "unit": "nM"},
      {"measurement": "stoichiometry N", "setting": "[4]", "result": 1.02},
      {"measurement": "Kd", "setting": "[5]", "result": 1800, "unit": "nM"}
    ]},
    {"molecule": "LLFGGYPVYV [TAX10]", "values": [
      {"measurement": "Tm of pMHC-I complex", "setting": "[1]", "result": 58.9, "unit": "°C"}
    ]},
    {"molecule": "CC[C@H](C)[C@H](NC(=O)[C@H](CCC(=O)O)NC(=O)[C@H](CC(C)C)NC(=O)[C@H](CC(C)C)NC(=O)[C@@H](N)CCCCN)C(=O)N1CCC[C@H]1C(=O)N[C@@H](CC(=O)O)C(=O)N1CCC[C@H]1C(=O)N[C@@H](CC(=O)O)C(=O)N[C@@H](CCCCN)C(=O)N[C@@H](CC(N)=O)C(=O)N[C@@H](Cc1c[nH]c2ccccc12)C(=O)N[C@@H](C)C(=O)N[C@H](C(=O)N[C@@H](CC(C)C)C(=O)O)[C@@H](C)O", "note": "[KLL15]", "values": [
      {"measurement": "Kd", "setting": "[6]", "result": "334 ± 20", "unit": "nM"},
      {"measurement": "Kd", "setting": "[7]", "result": "21.6 ± 7", "unit": "µM"},
      {"measurement": "Kd", "setting": "[8]", "result": "49.5 ± 8.6", "unit": "µM"},
      {"measurement": "Kd", "setting": "[9]", "result": "383 ± 22", "unit": "nM"}
    ]},
    {"molecule": "B1", "values": [
      {"measurement": "binding of HLA-A*01:01 tetramers", "setting": "[10]", "result": "No binding"},
      {"measurement": "Kd", "setting": "[11]", "result": "~190", "unit": "nM"},
      {"measurement": "Kd", "setting": "[12]", "result": "~2000", "unit": "nM"}
    ]}
  ]
}
